{"source": "paper PMC10599278", "conditions": "ubiquitination at K213"}
{"substance": "IGF2BP3: K213R", "values": [{"measurement": "other", "value": "decreases"}]}
